The source of these data is US20140134180A1 (E R SQUIBB AND SONS L L C, published 2014).

The target in one test is T1, Penta-B7H4 ( for this construct).
T1 construct: also called Penta-O8E; Penta-B7H4-C9
Put plainly: ELISA: anti-mouse Fc coat, monoclonal anti-C9 (0.6 ug/ml), Penta-B7H4 titrated 4000 to 2.0 ng/ml, human antibody at 1 ug/ml; the value is a concentration of Penta-B7H4, not of antibody [panel B]. On the technique in general: In an ELISA, binding on a coated surface is turned into a signal by an enzyme label.

For test [1], the target named is T2, human O8E, full length, on cells (human, UniProt Q7Z7D3 25-282).
T2 construct: also called B7H4; B7S1
T2 sequence: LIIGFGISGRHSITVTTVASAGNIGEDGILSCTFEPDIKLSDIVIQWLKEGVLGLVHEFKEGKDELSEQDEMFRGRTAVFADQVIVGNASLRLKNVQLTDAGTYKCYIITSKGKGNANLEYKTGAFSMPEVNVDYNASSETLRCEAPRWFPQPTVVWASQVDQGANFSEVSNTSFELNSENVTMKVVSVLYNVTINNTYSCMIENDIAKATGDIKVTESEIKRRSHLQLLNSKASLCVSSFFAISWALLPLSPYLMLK
Put plainly: titration of labelled antibody on O8E-transfected cells, sigmoidal dose response fit; bottom and top fixed for incomplete curve; qualitative ranking.
Protocol: (§1) HEK cells were transfected with full length O8E using standard techniques and grown in RPMI media containing 10% fetal bovine serum (FBS). […] Millipore plates (MAFB NOB) were coated with 1% nonfat dry milk in water and stored a 4° C. overnight. The plates were washed three times with 0.2 ml of binding buffer. Fifty microliters of buffer alone was added to the maximum binding wells (total binding). Twenty-five microliters of buffer alone was added to the control wells (non-specific binding). Varying concentration of ¹²⁵I-anti-O8E antibody was added to all wells in a volume of 25 μl. (In some cases FITC labeled antibodies were used for the titration since unlabeled material was not available, binding may be compromised in these instances.) Varying concentrations of unlabeled antibody at 100 fold excess was added in a volume of 25 μl to control wells and 25 μl of O8E transfected CHO cells (2×10⁶ cells/ml) in binding buffer were added to all wells. The plates were incubated for 2 hours at 200 RPM on a shaker at 4° C. At the completion of the incubation the Millipore plates were washed three times with 0.2 ml of cold wash buffer (24 mM Tris pH 7.2, 500 mM NaCl, 2.7 mM KCl, 2 mM Glucose, 1 mM CaCl₂, 1 mM MgCl₂, 0.1% BSA.). The filters were removed and counted in a gamma counter. […]

The target in test [2] is T2, human O8E, full length, on cells. Put plainly: titration of labelled antibody on O8E-transfected cells, sigmoidal dose response fit; FITC-labelled antibody; qualitative ranking.
Protocol: as §1
For test [3] the target is unchanged. The test can be described thus: titration of labelled antibody on O8E-transfected cells, sigmoidal dose response fit; qualitative ranking.
Protocol: as §1

Protocol for Penta-B7H4: An ELISA plate was coated with anti-mouse Fc, followed by monoclonal anti-C9 (0.6 ug/ml), then titrated Penta-B7H4 as indicated, then the human antibodies at 1 ug/ml.

B1: 2A7 human monoclonal antibody (antibody, V domains shown)
VH: EVQLVESGGGLIQPGGSLRLSCAASGFTVSSNYMNWVRQAPGKGLEWVSVIYGSGRTYYADSVKGRVTISRDNSKNTLYLQMNSLRAEDTAVYYCARDTYAMDVWGQGTTVTVSS
VL: not shown
notes: Human IgG from a hybridoma of mice carrying a human kappa transgene; Fitcylated for immunohistochemistry; also called 2A7.C11; 2A7/C11
In the case of B1, the concentration for a half-maximal effect (EC50 (read off the curve)) in the test with Penta-B7H4 is around 0.04 µg/mL.

B2: 12E1 human monoclonal antibody (antibody, V domains shown)
VH: EVQLVESGGGLVQPGRSLRLSCVASGFTFDDYAMHWVRQAPGKGLEWVSGISWNSGSIGYADSVKGRFTISRDNAKNSLYLQMNSLRAEDTALYYCTKALYGSGSSDFYYYGMDVWGQGTTVAVSS
VL: EIVLTQSPATLSLSPGERATLSCRASQSVSSYLAWYQQKPGQAPRLLIYDASNRATGIPARFSGSGSGTDFTLTISSLEPEDFAVYYCQQRRTFGQGTKVEIK
notes: Human IgG from a hybridoma of mice carrying a human kappa transgene; also called 12E1.G9
Regarding B2, in the test with Penta-B7H4, the “EC50 (read off the curve)” value was around 0.05 µg/mL. The molecule further yielded an EC50 in test [1] of around 19.8 nM.

B3: 1G11 human monoclonal antibody (antibody, V domains shown)
VH: QVQLQQWGAGLLKPSETLSLTCAVYGGSFSDYFWTWIRQPPGKGLEWIGEINHSGTTNYNPSLKSRVTISADTSKNQFSLRLSSVTAADTAVYYCARLSSWSNWAFEYWGQGTLVTVSS
VL: EIVLTQFPGTLSLSPGERATLSCRASQSVSSTYLAWYQQKPGQAPRVLIYGASRRATGIPDRFSGSGSGTDFTLTISRLEPEDFAVYYCQQYGSSPLTFGGGTKVEIK
notes: Human IgG from a hybridoma of mice carrying a human kappa transgene; also called 1G11.H11-FITC; 1G11.H1
B3: the EC50 in test [2] was 1.69 nM.

B4: 13D12 human monoclonal antibody (antibody, V domains shown)
VH: QVQLQQWGAGLLKPSETLSLTCAVYGGSFSGYYWSWIRQPPGKGLEWIGKINHSGSTNYNPSLKSRVTISVDTSKNQFSLKLNSVTAADTAVYYCARELRYFENYYYGMDVWGQGTTVTVSS
VL: not shown
notes: Human IgG from a hybridoma of mice carrying a human kappa transgene; also called 13D12.G10
Regarding B4, the 50% effective concentration (EC50) in test [3] was determined as 0.746 nM.

The EC50 (read off the curve) is the concentration giving half of the maximal effect. Low values mean greater potency, high ones weaker potency. One may read the EC50 as the concentration giving half of the maximal effect. A higher EC50 goes with a need for much substance.
